{
  "source": "a protein production outcome set (Wang et al. 2014)",
  "assay": "label from the status in PepcDB records",
  "data": [
    {"sequence": "MTEKNTLKKSATLAAAGLVVAGALLAGCGESKATPMDDAYAGNSGETEKSQEEQSQSQSNGSDSSDGSDSGSSHNDPSTTTSDKKDTGNYKDGNYSINGQYGPVGEDSIDVHLTIKDGNVETVKIIGHPFTTISKNHQDDFAKAINGVVDGKPLKGLKVDKVAGASWTSDAFNKALEVARQEASIQE", "values": [
      {"measurement": "protein production", "value": "failed"}
    ]},
    {"sequence": "MTEKSQEPTAALDAEQVAAYLSQHPEFFVEHDELIPELRIPHQPGDAVSLVERQVRLLRERNIEMRHRLSQLMDVARENDRLFDKTRRLVLDLLDATSLEDVVSTVEDSLRHEFQVPYVSLILFSDSSVSVGRSVSSAEAHQAIGGLLSGGKTVCGVLRPHELAFLFGESDRDEIGSAAVVSLSFQGLHGVLAIGSPDPQHYKSSLGTLFLGYVAEVLARVLPRFSSPLRSVR", "values": [
      {"measurement": "protein production", "value": "not failed"}
    ]},
    {"sequence": "MTELTILLGLAAAGYGVSHWTQLPAIPFLLMGGLALNATGAVGDAGFVEDVLFLSVSILLFVAGTDLSLTRVGPFKKTAFVIGVAQFAGLAAAALGIAYGLDYALTDALYLGLALAASSTIVGVRLLQRRQQMFEPYGRTVLGALLLQDVIVVLLLPLLVRLPDGSAAVLGSLGGTIVLLVGVGVVMKGVVPLLLKRELDAETQLLAVLGVLFGFMGAAAWLDVPLFAAAFLAGVSLSGFPFSGIVHSEMQPLYDFFSALFFASLGVAAPQPAPVLFGHAALFAGAVLVLTPLIVAVVGAWAGLVAQSALESGLLLAQTSELSLVVGLQALVAGQIGGEVFSVIVLTTVFTMMLTPLLTSETVVWELVRWHPSRQSDVLSEVPSNHVLVVGGGRSARPLLRLLRESKYEAVVVDEDPTVVDRLRDQGVRCVRGDGSDRAVLLKAGGAQARIVVSLLRNPKAVESLLDYVGDTVPILVRVFEDHEAEWVEARGGTPIRFAHAASDAFMEWFRRAQSARSKQPPSGT", "values": [
      {"measurement": "protein production", "value": "failed"}
    ]},
    {"sequence": "MTENIPKSVAAMIRQPRKISPFWLLPIVAFIIGALLFFQILKEQGETIKIRFNAGDGIVAGKTIVRYQGLQIGQVKKVYFVDDLKKVEVQAQINSEAKSVLREGTTFWLVKPSASIAGVSGLDALVSGNYITLAPGNGAITNHFVAQDEQPAATVTDGDLLVHLIASDLGSITIGASVYFRKVPVGNIANYRFTEDKQKVEIDVVINKKYAHLVKQNSRFWNISGLNANISFSGLAVNVDSLASVIQGAVSFDSPEDSTLAEQASRFDLYADLKSAQRGVDVNITVPAMTSLKVNETPVFYQNTQVGVLSFIEAMPIDNKEIERVEENAMLRGRLLIDPNYTHLFREQSTILLKEPKFNLNAEQLTNIGQLLRGVYFEVKAGNGLAKRTFTVEKESDYLLSRPDMLALTFFAPKAYGVEEGQGIYYNDVKIGELLKRTLSVDGVTLQGIIFPAYRYLVGENSKFMAIAHLDVAVGLDGLRVKAGSPSHWLQGGIRLLEGKVQGVAKKQYPLYKDIDNAQAGILSDIKQPTLTLSASELEGIDKGAVVLYRNYQIGEVLNVKPQSQKFDVEVYIEPAYRQLIGNKSRFWVESAIEAELSAKGLSIQSAPLMRTLRGAISIDNGGDKMDRTLYANRIKATANKTRISLIAKDASKLFKGMAIKYMGLTIGQIETLALQNAKKQIKLTAYIEAPYYSIIAKEGSCFTAISPEVTPSGVKNIDAVLQNYIDVEAGNGGLATEFNLIDTDTNKTTYANNFPIIVETSDARGIEVNAPVLYRGLQVGIVQRLQLSELADRIQIHLAIEKQYQHLIRNNTQFWAASGYTMDISLQGVSLNSGTMAQLLKGGIEFLTPSTRVVEPQAKPNRRFLLQRKIPAKALSWDQAIAE", "values": [
      {"measurement": "protein production", "value": "failed"}
    ]},
    {"sequence": "MTENPEEDNKVFNYWWLAHLVEVRLDAYLRTKKQADLEVAEKTYLHNKNRNGGTLIHDFYDDMLWNALAAYRLYKATGKSIYLEDAQLVWQDLVDTGWNDIMGGGFAWRRPQMYYKNTPVNAPFIILSCWLYNELNETKYLEWAMKTYEWQTKVLVREDGFVEDGINRLEDGTIDYEWKFTYNQGVYIGANLELYRITKEAKYLDTANKTAAISLKELTEDGIFKDEGNGGDEGLFKGIFYRYFTDLIEETANKTYRDFVLNSCQILVENAKLDGYLLMGMNWKEKPSGKIPYSAELSGMIALEMAAKLELEHHHHHH", "values": [
      {"measurement": "protein production", "value": "not failed"}
    ]},
    {"sequence": "MTEPCYVMVDQRFDEFVDTARAPEQIVHGFAWTEGPVWLDGAPFFNDIANKRMMRWTKQACAEVALDNSEFANGNTLDGAGQVVSGEHAGRRVIRRPDPTDPSAVEVIAERSEGKRLNSPNEVVVRSDGSVWFTNPPYGINSDIEGYPAESEIGGCFVFCPDPDGTLHAVATEFDKPNELAFSPDECRLFVADSGAIRGAIFPGIDDDLPHHVRVFDVDGVTLSNGRVFAVVAPGAPDGFRVDHEGYVWTSALDGIHCLSPEGALIGKIWLPRQTSIICFGGPPGQTMFITSSDKVYRVESTRRDAAHALRDRERNAE", "values": [
      {"measurement": "protein production", "value": "failed"}
    ]},
    {"sequence": "MTEPNNPHRPDEAGVSGWPSEAGRDPYGQPSNPYQMPAPYSSGLPVAENHRRPYVDFGLAIKLFFKNYAVFRGRASRSEYWWTVLFNFIIAVAIQALMPILQGVGLMSAITSNSTTEFSAMSTSGVIFTMLPLAWLLAIIIPCLALTVRRLHDVNHSGWWVMAPTLCGIVSAIMMILAFVSAAANDGKPSMALLTIGIVLFVAIFVVNIILLIFVISDSHPEAWKKYDKEPLPVTE", "values": [
      {"measurement": "protein production", "value": "failed"}
    ]},
    {"sequence": "MTEPPPTPDRHPDAVESAAPGGYLEPVRAAGTVLWRDTGRGREIALVHRPRYNDWTLPKGKLDEGEHVLVAAVRETVEETGVTPRLGRRLATQRYWKSGWPKQVDWWAATPAPGTTAQFTPTAEVDAVEWLPAAEARARLTYPSDVRVLDDFLHGPAQTVPLVLLRHASAGNKNEWHDYDLLRPLDEAGRAHARAVADILAVFGPLRVVSSTAARCLETVVPYAAAHGVEIRTEHTFTVGVLRSGAQAYDPQAARQTMRALVEERQPTLVCTHGELVADLMAEAAAQTGAPARSRWALRKGAFWVVHRDAKDGSLVAVEHHGLPG", "values": [
      {"measurement": "protein production", "value": "failed"}
    ]},
    {"sequence": "MTEPTHKKQFSLRTAVMLPFIAVLLVTLSIVFYTQNNSYEKLVGDVSEKVLASYTQNTHADLNIFLNAPNFAVKSMVNQIQRYQMYHPNDTKQLQQFLKDSLEGIYTGLEQMDVLSFGGEKKEYIGFRREPNASLSLMLQDKRTNDDLIIYRGSEMSDNIRTVIANYDPRSRPWYKPAATTFKPSWSKIYTNADEKKEITISTMHPVFYDEDFIGVFAADVKLDSFNKFLSQETKHTKGVIYLIDDQQRLIAHSSVGSVLSIGTQNSPVGSRLFAVESCDETIQQSATYIKNNQLINNKNNDAEVFSFYYKGERYFSQITPYIDGNNLNWYIVISISESDLLGHLQEEQRRGLFFGIVLAAIGLIVGVYLVTQVTKPIFTTANAARNIASGNWNNNVEAQGSIYETTLLMNAFNDMTNKLQSSFDAMRQQITFDSLTQVLSRQGLIEQCRIMLDKKEHYEQGLLVIGINNFRDINDSFGILEGDQLLKNISDRLQCSFAHDNIAIARVGGDEFALFFSKLDDVEQLKQYARDMEGCFMTPFRVASNNSLLSISTGLVYGDLSCDSMTLWLRNASIALGQAKKNNLNMSLYTPEMAEASLHKANMTAELSLAIKNKELVPFYQPIIDIKSGKTIGAEALIRWLSPQRGMVSPLDFIPLAEENGMIIPMGSQVLTQACLDTVERIDQGLWPADFHMHVNLSVCQLTQNNFLDELKAVLHNTSMAPENLTLEITESRLVNHDNSTINTMQKIRDLGVQIAIDDFGTGYSSLAYIHKLPFDVLKVDRSFIKDLTAENIDSSIAAAVCNMTQGFDITLVAEGIETQEQAKLLASLNYHHAQGFLYSRPIPLEDWPTE", "values": [
      {"measurement": "protein production", "value": "failed"}
    ]},
    {"sequence": "MTERPSLSPREARDRYLAHRQTDAADASIKSFRYRLKHFVEWAEERDITAMRELTGWKLDEYETFRRGSDVSPATLNGEMQTLKNWLEYLARIDVVDEDLPEKVHVPTIPDGEESNDEMLEPEAAKKLLRAMRSDPTHYGTVKHALLELLWFTGCRVGAARSLDLRDYHSGERFVTFHHREGTPLKNDSDGERAVGLPEAVCEVLDYYIEHHRESSHDDHGRKPLFTTTQGRASENTARVWTYLATQPCLHGPCPHGKERETCSYLHIHSASKCPSSLSPHRIRTGSITWQRDCGLPAEVVSERVNATLEVIEKHYDQATKRQRLEERRRPYINNLELDLEADS", "values": [
      {"measurement": "protein production", "value": "failed"}
    ]}
  ]
}
